Experimental data from patent publication US20090269356, “Complement Binding Aptamers and Anti-C5 Agents Useful in the Treatment of Ocular Disorders” (published 2009).

Tests used:
[1] = target: complement C5 in human serum/blood (Homo sapiens, UniProt P01031); assay: inhibition; hemolysis, 0.2% human serum, 25 C; settings: protein: extract
Method: Hemolysis Assay: The effect of ARC913 (SEQ ID NO: 75) on the classical pathway of the complement system was analyzed using a hemolysis assay previously described, compared to both ARC186 (SEQ ID NO: 4) (Anti-C5 aptamer, positive control) and unselected dRmY pool (negative control). In the assay of hemolytic inhibition, a solution of 0.2% whole human serum was mixed with antibody-coated sheep erythrocytes (Diamedix EZ Complement CH50 Test, Diamedix Corporation, Miami, Fla.) in the presence of titrated ARC913 (SEQ ID NO: 75). The assay was run in veronal-buffered saline containing calcium, magnesium and 1% gelatin (GVB⁺⁺ complement buffer) and incubated for 1 hr at 25° C. After incubation the samples were centrifuged. The optical density at 415 nm (OD₄₁₅) of the supernatant was read. The inhibition of hemolysis activity is expressed as % hemolysis activity compared to control. The IC₅₀ of the aptamer was calculated to be about 30 nM.

[2] = target: complement C5 (full length) (Homo sapiens, UniProt P01031); assay: filter; dot blot; 20% plateau; settings: tags: Quidel / Complement Technologies A120.14 / Advanced Research Technologies
Method: The selection progress was monitored using a sandwich filter binding (dot blot) assay. The 5′-³²P-labeled pool RNA (trace concentration) was incubated with C5, 1×DPBS plus 0.1 mg/mL tRNA and 0.1 mg/mL salmon sperm DNA, for 30 minutes at room temperature, and then applied to a nitrocellulose and nylon filter sandwich in a dot blot apparatus (Schleicher and Schuell). The percentage of pool RNA bound to the nitrocellulose was calculated and monitored approximately every 3 rounds with a single point screen (+/−300 nM C5). Pool Kd measurements were measured using a titration of protein and the dot blot apparatus as described above.
Sequence Information: 45 clones from each pool were sequenced. R10 full length pool was dominated by one single clone ARC913 (SEQ ID NO: 75) which made up 24% of the pool, 2 sets of duplicates and single sequences made up the remainder. The R10 trypsinized pool contained 8 copies of the same sequence ARC913 (SEQ ID NO: 75), but the pool was dominated by another sequence (AMX221.A7; 46%).

Sequence of complement C5 in human serum/blood (P01031 whole entry): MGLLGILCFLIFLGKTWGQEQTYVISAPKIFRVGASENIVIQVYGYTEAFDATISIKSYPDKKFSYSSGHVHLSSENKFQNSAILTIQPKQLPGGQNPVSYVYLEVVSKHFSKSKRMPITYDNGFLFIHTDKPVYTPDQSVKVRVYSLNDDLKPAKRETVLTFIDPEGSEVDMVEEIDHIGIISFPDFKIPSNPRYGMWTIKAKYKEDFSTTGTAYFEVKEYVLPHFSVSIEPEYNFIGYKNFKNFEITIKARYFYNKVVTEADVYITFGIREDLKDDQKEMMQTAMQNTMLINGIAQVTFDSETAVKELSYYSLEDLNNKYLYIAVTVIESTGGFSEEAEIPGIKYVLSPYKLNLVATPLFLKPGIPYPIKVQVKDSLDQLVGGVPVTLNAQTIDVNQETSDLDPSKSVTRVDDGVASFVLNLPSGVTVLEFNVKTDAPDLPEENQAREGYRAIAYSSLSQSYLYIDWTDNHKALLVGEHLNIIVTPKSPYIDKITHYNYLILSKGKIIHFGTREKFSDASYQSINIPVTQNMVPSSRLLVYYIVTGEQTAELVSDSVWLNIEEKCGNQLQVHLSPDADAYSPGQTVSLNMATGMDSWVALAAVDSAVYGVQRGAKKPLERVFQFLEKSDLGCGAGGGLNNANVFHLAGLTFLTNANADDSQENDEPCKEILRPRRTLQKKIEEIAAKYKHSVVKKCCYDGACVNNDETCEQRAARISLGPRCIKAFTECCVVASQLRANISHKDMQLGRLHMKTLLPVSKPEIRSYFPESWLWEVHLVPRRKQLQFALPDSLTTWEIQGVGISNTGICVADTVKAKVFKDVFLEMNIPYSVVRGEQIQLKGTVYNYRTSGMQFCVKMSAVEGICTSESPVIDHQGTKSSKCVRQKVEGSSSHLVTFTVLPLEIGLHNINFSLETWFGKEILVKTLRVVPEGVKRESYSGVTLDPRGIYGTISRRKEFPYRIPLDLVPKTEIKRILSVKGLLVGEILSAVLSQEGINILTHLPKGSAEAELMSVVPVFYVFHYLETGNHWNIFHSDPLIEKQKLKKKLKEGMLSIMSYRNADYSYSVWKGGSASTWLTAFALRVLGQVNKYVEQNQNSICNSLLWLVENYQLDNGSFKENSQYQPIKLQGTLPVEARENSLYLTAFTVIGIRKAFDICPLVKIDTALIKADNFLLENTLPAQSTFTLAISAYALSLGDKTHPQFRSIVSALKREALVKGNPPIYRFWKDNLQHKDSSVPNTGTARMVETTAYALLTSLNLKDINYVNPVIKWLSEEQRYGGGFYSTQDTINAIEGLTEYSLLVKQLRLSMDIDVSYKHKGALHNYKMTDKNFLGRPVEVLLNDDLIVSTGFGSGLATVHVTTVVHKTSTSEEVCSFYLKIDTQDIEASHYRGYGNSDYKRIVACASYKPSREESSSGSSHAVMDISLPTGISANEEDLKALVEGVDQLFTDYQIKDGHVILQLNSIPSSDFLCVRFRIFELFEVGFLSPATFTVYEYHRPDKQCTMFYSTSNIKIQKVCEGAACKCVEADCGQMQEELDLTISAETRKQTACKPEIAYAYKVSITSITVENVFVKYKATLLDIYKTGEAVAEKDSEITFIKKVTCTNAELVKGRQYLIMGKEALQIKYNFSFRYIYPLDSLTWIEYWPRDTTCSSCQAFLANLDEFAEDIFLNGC
Sequence of complement C5 (full length) (P01031 whole entry): as above

B1: ARC913 (mixed)
RNA: GGGAGAGGAGAGAACGUUCUACCUUGGUUUGGCACAGGCAUACAUACGCAGGGGUCGAUCGAUCGAUCAUCGAUG
modifications: dRmY: A,G deoxy; C,U 2'-OMe
[1]
  IC50: ~30 nM
[2]
  Kd: ~140 nM
